The text below walks through data of patent publication US20160046725A1.

Experiment [1] addresses human Axl receptor on human tumor cells (UniProt P30530). The experiment is described as follows: cell-based or functional assay.
The target is the same in experiment [2]. In words: flow cytometry on SN12C cells, untreated (No Ab), labelled with 9G4 isotype control. On the technique in general: In flow cytometry, cells or beads pass a laser one at a time.
Experiment [3] has the same target. In words: flow cytometry on SN12C cells treated 24 h with 9G4, labelled with 9G4 isotype control.
For experiment [4] the target is unchanged. The experiment is described as follows: quantitative flow cytometry (Qifikit) on PC3 cells.
Experiment [5] shares this target. In words: quantitative flow cytometry (Qifikit) on A172 cells.
For experiment [6] the target is unchanged. The experiment is described as follows: quantitative flow cytometry (Qifikit) on A431 cells.
Experiment [7] has the same target. The experiment is described as follows: quantitative flow cytometry (Qifikit) on MCF7 cells.
For experiment [8] the target is unchanged. In words: quantitative flow cytometry (Qifikit) on SN12C cells.
Experiment [9] shares this target. The experiment is described as follows: quantitative flow cytometry (Qifikit) on Panc1 cells.
Experiment [10] has the same target. In words: quantitative flow cytometry (Qifikit) on Calu-1 cells.
For experiment [11] the target is unchanged. In words: quantitative flow cytometry (Qifikit) on DU-145 cells.
Experiment [12] has the same target. In words: quantitative flow cytometry (Qifikit) on NCI-H125 cells.
The target is the same in experiment [13]. The experiment is described as follows: quantitative flow cytometry (Qifikit) on NCI-H226 cells.
Experiment [14] has the same target. In words: quantitative flow cytometry (Qifikit) on MDA-MB-231 cells.
Experiment [15] has the same target. The experiment is described as follows: quantitative flow cytometry (Qifikit) on MDA-MB-435S cells.
The target is the same in experiment [16]. In words: flow cytometry on SN12C cells, untreated (No Ab), labelled with MAB154.

Chain of human Axl receptor on human tumor cells (P30530 26-894 D266N): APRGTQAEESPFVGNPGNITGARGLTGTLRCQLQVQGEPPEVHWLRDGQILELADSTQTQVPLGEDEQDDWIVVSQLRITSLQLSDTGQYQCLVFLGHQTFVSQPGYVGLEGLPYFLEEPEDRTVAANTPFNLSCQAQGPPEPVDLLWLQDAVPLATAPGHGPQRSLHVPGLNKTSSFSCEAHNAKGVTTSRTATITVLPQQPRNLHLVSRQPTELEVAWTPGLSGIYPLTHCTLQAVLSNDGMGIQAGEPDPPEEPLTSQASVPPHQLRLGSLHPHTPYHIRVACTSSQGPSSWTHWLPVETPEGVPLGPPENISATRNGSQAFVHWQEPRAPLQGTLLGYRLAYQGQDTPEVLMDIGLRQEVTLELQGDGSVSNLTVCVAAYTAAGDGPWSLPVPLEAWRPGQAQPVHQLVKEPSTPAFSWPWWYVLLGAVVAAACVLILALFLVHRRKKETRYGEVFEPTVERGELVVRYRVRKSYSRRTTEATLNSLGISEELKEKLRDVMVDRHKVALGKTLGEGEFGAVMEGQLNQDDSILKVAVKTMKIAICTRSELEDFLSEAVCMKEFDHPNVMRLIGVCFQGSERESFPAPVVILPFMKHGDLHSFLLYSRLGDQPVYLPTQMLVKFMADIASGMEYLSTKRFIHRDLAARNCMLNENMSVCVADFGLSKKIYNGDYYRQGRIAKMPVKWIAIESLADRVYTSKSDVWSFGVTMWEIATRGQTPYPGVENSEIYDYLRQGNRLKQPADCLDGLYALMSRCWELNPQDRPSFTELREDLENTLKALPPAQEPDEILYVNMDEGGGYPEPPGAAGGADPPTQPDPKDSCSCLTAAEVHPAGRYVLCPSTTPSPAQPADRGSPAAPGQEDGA

“9G4 murine IgG1 isotype control antibody”: in experiment [1], the % remaining Axl was 117% and the Δ (MFI No Ab 24 h - MFI Ab 24 h) is -2 MFI. In experiment [2], this substance registered an MFI at T24 h of 11 MFI. Further, the MFI at T24 h in experiment [3] was 13 MFI.

For the substance “MAB154 anti-Axl commercial antibody (R and D Systems)”, the ABC (Qifikit) in experiment [4] is 8420 ABC; in experiment [5] it was 52400 ABC; in experiment [6], 3950 ABC; in experiment [7] it was 71 ABC; in experiment [8] it was more than 100000 ABC; in experiment [9] it was 36800 ABC. The ABC (Qifikit) is more than 100000 ABC in experiment [10]; 55300 ABC in [11]; 5540 ABC in experiment [12]; 32100 ABC in experiment [13]; 61200 ABC in experiment [14]; 17800 ABC in experiment [15]. In experiment [8], this substance came in with an Antigen binding capacity (Qifikit) of more than 100000 ABC. The MFI at T24 h in [16] was determined as 950 MFI.
